# Substitutions are numbered along the chain they refer to.
# T1: Ribonuclease A (Type II-A) from bovine pancreas (bovine, UniProt P61823 27-150)
# T1 sequence (looked up): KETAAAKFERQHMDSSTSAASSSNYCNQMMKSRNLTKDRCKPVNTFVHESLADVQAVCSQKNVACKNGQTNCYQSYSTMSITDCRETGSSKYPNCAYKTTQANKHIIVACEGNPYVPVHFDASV
# B1: Peptide-1, synthetic peptide with the CDR3 sequence of the screened clone (peptide)
# peptide: CGPDSDVMTDF
# notes: Bought from Peptron, 90% purity; Peptide-1 is tied to the CDR3 of clone 5 / Fv-1 by the order of the names only; also called peptides-1
# B2: Fv-1, expressed soluble Fv antibody of clone 5 (His-tag-TdTomato-VH) (other)
# chain: EVQLVESAAEVRRPGASVKITCKASGYSFSTYGIQWMRQAPGQRPEWLGWIHAGTGGTKYSRKFQGRITITRDTSANTVYLDLNSLTSEDTAVYYCARCGPDSDVMTDFWGQGTTVTVSS
# notes: Fusion protein made in E. coli from a recombinant plasmid (pJS001 to pJS003, not tied one by one); molecular weight estimated 69.2 kDa; No light chain; also called expressed Fv antibody; TdTomato-labeled Fv antibody; not shown: His-tag; TdTomato fluorescent protein
# B3: Fv-2, expressed soluble Fv antibody of clone 23 (His-tag-TdTomato-VH) (other)
# chain: B2 chain with C99Y, D102V, S103G, D104R, M106K, T107R, F109D
# notes: Fusion protein made in E. coli; 69.2 kDa; No light chain; not shown: His-tag; TdTomato fluorescent protein
# B4: Fv-3, expressed soluble Fv antibody of clone 39 (His-tag-TdTomato-VH) (other)
# chain: B2 chain with C99D, P101T, D102A, S103K, D104K, V105S, M106R, T107K, F109D
# notes: as for B3
# Columns and labels:
# [1] = biological target: T1, Ribonuclease A (Type II-A) from bovine …; experiment: cell-based or functional assay
# [2] = biological target: RNase A contained in the actual serum sample; experiment: cell-based or functional assay
# [3] = biological target: RNase A contained in the pig swab actual sample (pig (sample: pig swab)); experiment: cell-based or functional assay
# [4] = biological target: RNase A contained in the saliva swab actual sample; experiment: cell-based or functional assay
# [5] = biological target: T1, Ribonuclease A (Type II-A) from bovine …; experiment: SPR biosensor, RNase A immobilized on the Au chip, peptide in solution
# Procedure: (§1) Binding analysis of the expressed FV antibody and synthesized peptides against RNase A was performed using an SPR (Surface Plasmon Resonance) biosensor from I-Cluebio (Seongnam, Korea). RNase A was immobilized on the gold surface of the SPR chip used in the SPR biosensor to conduct the binding analysis. For the manufacture of the SPR chip, a 2 nm thick titanium adhesive layer and a 48 nm thick gold surface were consecutively sputter-coated onto BK-7 glass (1×1 cm²). […] To analyze the binding of the expressed Fv antibody to RNase A, Fv antibodies in the concentration range of 0.37-100 nM were reacted using PBS buffer as the […] through association (10 minutes), equilibrium (5 minutes), and dissociation (10 minutes) steps. The washing buffer and total SPR measurements were performed at a flow rate of 15 μL/min. For the binding analysis of the synthesized peptides against RNase A, peptides in the concentration range of 0.37-100 nM were reacted using PBS buffer as the washing buffer through association (10 minutes), equilibrium (5 minutes), and dissociation (10 minutes) steps, and total SPR measurements were conducted at a flow rate of 15 μL/min.
# Using the screened CDR3 amino acid sequences, the CDR3 regions of the screened Fv antibodies were synthesized as peptides, and the amino acid sequences were determined from the nucleotide sequences of the CDR3 regions as summarized in Table 7. These synthetic peptides (Peptide-1, Peptide-2, Peptide-3) and Fv antibodies (Fv-1, Fv-2, Fv-3) were identical to the amino acid sequences of the CDR3 regions of the screened clones. The expression of the Fv antibodies was confirmed using SDS-PAGE, and the molecular weight of the Fv antibodies was estimated to be 69.2 kDa as shown in FIG. 9. The affinity constant (KD) of the synthetic peptides and the expressed Fv antibodies against RNase A was estimated using an SPR biosensor.
# [6] = biological target: T1, Ribonuclease A (Type II-A) from bovine …; experiment: SPR, RNase A immobilized on the Au chip, fit of SPR signal against peptide concentration. The label is unnamed: it is printed in the light grey of the Peptide-1 marker at the top end of that curve, and agrees with the 1.3 ± 0.1 µM of the text.
# Procedure: RNase A was immobilized on the gold surface of the SPR chip used in the SPR biosensor to conduct the binding analysis. For the manufacture of the SPR chip, a 2 nm thick titanium adhesive layer and a 48 nm thick gold surface were consecutively sputter-coated onto BK-7 glass (1×1 cm²). […] To analyze the binding of the expressed Fv antibody to RNase A, Fv antibodies in the concentration range of 0.37-100 nM were reacted using PBS buffer as the […] through association (10 minutes), equilibrium (5 minutes), and dissociation (10 minutes) steps. The washing buffer and total SPR measurements were performed at a flow rate of 15 μL/min. […]
# Using the screened CDR3 amino acid sequences, the CDR3 regions of the screened Fv antibodies were synthesized as peptides, and the amino acid sequences were determined from the nucleotide sequences of the CDR3 regions as summarized in Table 7. […] The SPR signal was plotted according to the concentration of the synthetic peptides, and the affinity constants (KD) of these synthetic peptides were calculated through a fitting process.
# [7] = biological target: T1, Ribonuclease A (Type II-A) from bovine …; experiment: SPR biosensor, RNase A immobilized on the Au chip, expressed Fv antibody in solution
# Procedure: as §1
# Using the screened CDR3 amino acid sequences, the CDR3 regions of the screened Fv antibodies were synthesized as peptides, and the amino acid sequences were determined from the nucleotide sequences of the CDR3 regions as summarized in Table 2. These synthetic peptides (Peptide-1, Peptide-2, Peptide-3) and Fv antibodies (Fv-1, Fv-2, Fv-3) were identical to the amino acid sequences of the CDR3 regions of the screened clones. The expression of the Fv antibodies was confirmed using SDS-PAGE, and the molecular weight of the Fv antibodies was estimated to be 69.2 kDa as shown in FIG. 9. The affinity constants (KD) of these synthetic peptides and the expressed Fv antibodies against RNase A were estimated using an SPR biosensor.
# [8] = biological target: T1, Ribonuclease A (Type II-A) from bovine …; experiment: cell-based or functional assay; remark: listed apart in the source
Binder,"IC50, cCMP assay (hydrolysis of 2',3'-cyclic CMP, absorbance at 286 nM) [1]","IC50 by linear regression, RNA probe assay [1]","IC50 for the inhibition of RNase A activity, HeLa total RNA cleavage, agarose gel image [1]","peptide concentration at which the RNase inhibition activity is over 50%, HeLa total RNA cleavage, agarose gel [1]","relative inhibition level after 60 minutes, RNA probe assay (fluorophore and quencher), peptide at 1 µM [1]","decrease of RNase A activity after approximately 27 minutes, cCMP assay, serum actual sample, 1 µM inhibitor [2]","decrease of RNase A activity after approximately 27 minutes, cCMP assay, pig swab actual sample, 1 µM inhibitor [3]","decrease of RNase A activity after approximately 27 minutes, cCMP assay, saliva swab actual sample, 1 µM inhibitor [4]",Kd [5],Kd [6],"Fv-antibody concentration at which the RNase inhibitory activity is over 50%, HeLa total RNA cleavage, agarose gel [1]","IC50, RNase activity analysis with the RNA probe [1]","IC50 for RNase A activity inhibition, HeLa total RNA cleavage, agarose gel image, dose-response curve fitting [1]",Kd [7],"IC50 (RNase A activity after treatment with Fv-3 beads, 1/10 diluted Pig Swab, RNase A 10 ng, RNA gel) [8]","IC50 (RNase A activity after treatment with Fv-3 beads, 1/10 diluted Saliva Swab, RNase A 10 ng, RNA gel) [8]","IC50 (RNase A activity after treatment with Fv-3 beads, 1/10 diluted Serum, RNase A 10 ng, RNA gel) [8]"
"YGPVGRVKRDD (also called peptides-2) [Peptide-2, synthetic peptide with the CDR3 sequence of the screened clone]",373 nM,3.6 µM,658 nM,> 1 µM,53.2%,~55%,~41%,~44%,1300 nM,–,–,–,–,–,–,–,–
B1,607 nM,8.1 µM,995 nM,> 1 µM,54.4%,~53%,~41%,~30%,1300 nM,1350 nM,–,–,–,–,–,–,–
B2,194 nM,–,–,–,–,~55%,~61%,~42%,–,–,≥ 350 nM,90.2 nM,234 nM,17.5 nM,–,–,–
B3,236 nM,–,–,–,–,~55%,~49%,~63%,–,–,≥ 350 nM,65.3 nM,366 nM,28.8 nM,–,–,–
B4,196 nM,–,–,–,–,~52%,~55%,~60%,–,–,≥ 350 nM,98.8 nM,436 nM,33.9 nM,632 nM,838 nM,1010 nM
"DGTAKKSRKDD (also called peptides-3) [Peptide-3, synthetic peptide with the CDR3 sequence of the screened clone]",356 nM,0.4 µM,464 nM,> 1 µM,50.3%,~60%,~41%,~35%,3700 nM,–,–,–,–,–,–,–,–

# From patent US20260217863A1 (UIF UNIVERSITY INDUSTRY FOUNDATION YONSEI UNIVERSITY, published 2026)
